Here are results for one substance from publication PMC3720604.

The assay has as its target endogenous CK2β (human (endogenous in HeLa)) (UniProt P67870). Put plainly: co-IP; lysates (200 ug) of HeLa cells transfected with CK2α-HA or CK2α′-HA; consecutive rounds of immunoprecipitation with anti-CK2β sera and protein A sepharose, or mock control; supernatant and immunoprecipitate blotted for HA and CK2β; NP-40 alternative lysis buffer, 150 mM NaCl, 50 mM Tris pH 7.5.
Sequence of UniProt P67870 (P67870 whole entry): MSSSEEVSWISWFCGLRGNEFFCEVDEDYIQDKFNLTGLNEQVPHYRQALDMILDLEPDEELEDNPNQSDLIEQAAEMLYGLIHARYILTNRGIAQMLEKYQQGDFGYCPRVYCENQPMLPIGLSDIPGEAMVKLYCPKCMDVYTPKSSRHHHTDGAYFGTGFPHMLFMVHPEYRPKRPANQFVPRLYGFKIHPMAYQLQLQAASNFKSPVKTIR

Sequence of CK2α′-HA (P19784 whole entry): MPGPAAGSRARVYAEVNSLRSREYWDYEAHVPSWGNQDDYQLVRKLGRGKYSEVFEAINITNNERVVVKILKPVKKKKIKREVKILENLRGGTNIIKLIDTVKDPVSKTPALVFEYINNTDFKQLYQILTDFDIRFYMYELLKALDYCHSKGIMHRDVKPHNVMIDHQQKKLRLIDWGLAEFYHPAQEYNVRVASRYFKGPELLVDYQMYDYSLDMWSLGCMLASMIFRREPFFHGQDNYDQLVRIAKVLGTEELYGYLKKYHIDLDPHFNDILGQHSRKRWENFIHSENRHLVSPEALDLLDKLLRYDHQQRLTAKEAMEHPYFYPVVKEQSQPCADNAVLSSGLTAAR

As for “CK2α′-HA (from UniProt P19784 1-350) (enzyme)”, the percent depleted from the lysate by CK2β immunoprecipitation was > 90%.
